From article PMC12024163, “Competitive Ligand-Induced Recruitment of Coactivators to Specific PPARα/δ/γ Ligand-Binding Domains Revealed by Dual-Emission FRET and X-Ray Diffraction of Cocrystals” (Antioxidants, 2025)
No end group written: not given here. *: point of attachment. Biotin = O=C1N[C@H]2[C@H](CS[C@H]2CCCCC(=O)*)N1

T1: Human PPARα-LBD (amino acids 200–468), amino-terminal His-tagged (human, UniProt Q07869 200-468)
T1 construct: Form used in the FRET assays; detected through the His tag with a Tb cryptate anti-6×His antibody; Routine preparations hold intrinsic fatty acids; also called hPPARα-LBD; NR1C1; source: Rosetta (DE3) pLysS cells, pET28a, purified (TALON, HiTrap Q, Superdex 75); not shown: His tag, N-terminal, kept
T1 sequence (looked up): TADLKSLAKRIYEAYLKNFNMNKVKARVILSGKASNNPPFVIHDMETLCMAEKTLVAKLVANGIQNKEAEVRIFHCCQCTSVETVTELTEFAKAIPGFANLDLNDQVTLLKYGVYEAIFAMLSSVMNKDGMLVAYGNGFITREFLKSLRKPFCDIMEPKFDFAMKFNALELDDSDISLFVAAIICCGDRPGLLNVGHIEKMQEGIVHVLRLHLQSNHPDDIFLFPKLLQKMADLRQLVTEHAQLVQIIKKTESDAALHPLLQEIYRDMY

T2: Human PPARδ-LBD (amino acids 170–441), amino-terminal His-tagged (human, UniProt Q03181 170-441)
T2 construct: Form used in the FRET assays; also called hPPARδ-LBD; PPARβ; source: Rosetta (DE3) pLysS cells, pET28a, purified (TALON, HiTrap Q, Superdex 75); not shown: His tag, N-terminal, kept
T2 sequence (looked up): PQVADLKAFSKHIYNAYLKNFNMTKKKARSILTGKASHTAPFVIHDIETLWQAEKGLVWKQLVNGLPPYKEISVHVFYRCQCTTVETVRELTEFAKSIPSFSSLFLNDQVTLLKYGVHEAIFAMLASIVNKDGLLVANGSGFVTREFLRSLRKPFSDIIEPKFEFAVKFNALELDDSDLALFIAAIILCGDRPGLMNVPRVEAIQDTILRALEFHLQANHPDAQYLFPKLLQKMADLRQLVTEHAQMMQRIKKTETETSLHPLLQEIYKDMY

T3: Human PPARγ-LBD (amino acids 203–477 in isoform 1), amino-terminal His-tagged (human, UniProt P37231-2 203-477)
T3 construct: numbers count on: isoform 1; Form used in the FRET assays; mainly prepared as apo (unliganded) form; also called hPPARγ-LBD; NR1C3; source: Rosetta (DE3) pLysS cells, pET28a, purified (TALON, HiTrap Q, Superdex 75); not shown: His tag, N-terminal, kept
T3 sequence (looked up): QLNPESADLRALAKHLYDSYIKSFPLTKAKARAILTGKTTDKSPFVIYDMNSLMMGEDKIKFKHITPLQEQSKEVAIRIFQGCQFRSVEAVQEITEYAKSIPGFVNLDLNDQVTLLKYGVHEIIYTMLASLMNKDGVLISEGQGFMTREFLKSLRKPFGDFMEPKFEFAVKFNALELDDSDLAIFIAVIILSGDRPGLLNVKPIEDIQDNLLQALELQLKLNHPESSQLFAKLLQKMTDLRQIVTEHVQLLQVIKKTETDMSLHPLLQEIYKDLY

B1: PGC1α coactivator peptide, biotin-labeled (AAs 137–155) (peptide)
peptide: Biotin-EAEEPSLLKKLLLAPANTQ
notes: also called ULight-PGC1α; source: synthetic peptide (GenScript)
B2: SRC1 coactivator peptide, biotin-labeled (AAs 676–700) (peptide)
peptide: Biotin-CPSSHSSLTERHKILHRLLQEGSPS
notes: also called ULight-SRC1; SRC-1 M2; source: synthetic peptide (GenScript)
B3: TRAP220 coactivator peptide, biotin-labeled (AAs 631–655) (peptide)
peptide: Biotin-PVSSMAGNTKNHPMLMNLLKDNPAQ
notes: thyroid hormone receptor-associated protein 220 (TRAP220), human, AAs 631–655, LXXLL motif LMNLL; also called ULight-TRAP220; ULight-TRAP; source: synthetic peptide (GenScript)
B4: CBP coactivator peptide, biotin-labeled (AAs 56–80) (peptide)
peptide: Biotin-SGNLVPDAASKHKQLSELLRGGSGS
notes: also called ULight-CBP; source: synthetic peptide (GenScript)
B5: NCoR2 corepressor peptide, biotin-labeled (AAs 2321–2341) (peptide)
peptide: Biotin-EHASTNMGLEAIIRKALMGKY
notes: NCoR2 (nuclear receptor corepressor 2, SMRT), human, AAs 2321–2341, LXXXIXXXL motif LEAIIRKAL; also called ULight-NCoR2; SMRT; source: synthetic peptide (GenScript)
B6: NCoR1 corepressor peptide, biotin-labeled (AAs 2255–2275) (peptide)
peptide: Biotin-ADPASNLGLEDIIRKALMGSF
notes: NCoR1 (nuclear receptor corepressor 1), human, AAs 2255–2275, LXXXIXXXL motif LEDIIRKAL; also called ULight-NCoR1; N-CoR ID2; source: synthetic peptide (GenScript)

target: T1, Human PPARα-LBD (amino acids 200–468), …; test: FRET or BRET; single-emission TR-FRET as a1, with the agonist titrated (pemafibrate for PPARα-LBD, seladelpar for PPARδ-LBD, pioglitazone for PPARγ-LBD); signal ratios normalised to 1% DMSO; conditions: both partners purified

EC50 of pemafibrate (the ligand is titrated) for recruitment of the peptide	Binder
82 nM	B1
87.8 nM	B2
130 nM	B3
60.9 nM	B4

target: T2, Human PPARδ-LBD (amino acids 170–441), …; test: as above; conditions: both partners purified

EC50 of seladelpar (the ligand is titrated) for recruitment of the peptide	Binder
48.1 nM	B1
53.5 nM	B2
54.8 nM	B3
33.2 nM	B4

target: T3, Human PPARγ-LBD (amino acids 203–477 in …); test: as above; conditions: both partners purified

EC50 of pioglitazone (the ligand is titrated) for recruitment of the peptide	Binder
2110 nM	B2
1910 nM	B3
637 nM	B4

target: T1, Human PPARα-LBD (amino acids 200–468), …; test: FRET or BRET; dual-emission TR-FRET: a FITC-coactivator peptide and a ULight-coactivator peptide together in one well with the His-tagged LBD and Tb anti-6×His antibody; agonist titrated (pemafibrate, seladelpar or pioglitazone); buffer A, room temperature; conditions: both partners purified

maximal recruitment in dual-FRET with pemafibrate, that of FITC-CBP in the same well taken as 100	maximal recruitment in dual-FRET with pemafibrate, that of FITC-TRAP in the same well taken as 100	Binder
108 FITC-CBP = 100	150 FITC-TRAP = 100	B1
115 FITC-CBP = 100	77 FITC-TRAP = 100	B2
63.3 FITC-CBP = 100	75.8 FITC-TRAP = 100	B3
431 FITC-CBP = 100	508 FITC-TRAP = 100	B4

target: T2, Human PPARδ-LBD (amino acids 170–441), …; test: as above; conditions: both partners purified

maximal recruitment in dual-FRET with seladelpar, that of FITC-CBP in the same well taken as 100	maximal recruitment in dual-FRET with seladelpar, that of FITC-TRAP in the same well taken as 100	Binder
359 FITC-CBP = 100	313 FITC-TRAP = 100	B1
156 FITC-CBP = 100	55.5 FITC-TRAP = 100	B2
402 FITC-CBP = 100	108 FITC-TRAP = 100	B3
508 FITC-CBP = 100	372 FITC-TRAP = 100	B4

target: T3, Human PPARγ-LBD (amino acids 203–477 in …); test: as above; conditions: both partners purified

maximal recruitment in dual-FRET with pioglitazone, that of FITC-CBP in the same well taken as 100	maximal recruitment in dual-FRET with pioglitazone, that of FITC-TRAP in the same well taken as 100	Binder
52 FITC-CBP = 100	57.1 FITC-TRAP = 100	B2
107 FITC-CBP = 100	65.8 FITC-TRAP = 100	B3
237 FITC-CBP = 100	295 FITC-TRAP = 100	B4

target: T2, Human PPARδ-LBD (amino acids 170–441), …; test: FRET or BRET; dual-emission TR-FRET: ULight-corepressor peptide and FITC-coactivator peptide together in one well with the His-tagged LBD and Tb anti-6×His antibody; agonist titrated from vehicle (pemafibrate, seladelpar or pioglitazone); buffer A, room temperature; conditions: both partners purified

binding result	Binder
binds	B5
binds	B6

target: T3, Human PPARγ-LBD (amino acids 203–477 in …); test: as above; conditions: both partners purified

binding result	Binder
binds	B6

target: T1, Human PPARα-LBD (amino acids 200–468), …; test: FRET or BRET; single-emission TR-FRET (LANCE Ultra); His-tagged LBD (9.5 µL of 400 nM) with Tb cryptate anti-6×His antibody, biotin peptide (5 µL of 1 µM) with ULight-Streptavidin or FITC-Ahx peptide; buffer A (20 mM HEPES pH 7.4, 150 mM NaCl, 1 mM EDTA, 1 mM DTT, 0.005% Tween 20, 0.1% fatty acid-free BSA); room temperature, 2 h; without agonist (vehicle 1% DMSO); conditions: both partners purified

binding result	Binder
binds	B5
binds	B6

target: T3, Human PPARγ-LBD (amino acids 203–477 in …); test: as above; conditions: both partners purified

binding result	Binder
binds	B5
